experiment: yeast display, Sf9 membrane polyspecificity reagent, FACS + sequencing; frameworks hold sequencing errors
How it was run: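 A synthetic nanobody library was expressed on Saccharomyces cerevisiae BJ5465 by galactose induction for 36–48 hours. The library was stained for 1 hour at 4 °C with 10% biotinylated, detergent-solubilized Sf9 membrane reagent and enriched with streptavidin microbeads before FACS. Low and high (top ~1%) gates were set on anti-HA fluorescence for expression and streptavidin fluorescence for reagent binding, and each polyreactivity label reflects the gate of origin.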

Sequence | polyreactivity (PSR sort gate)
QVQLVESGGGLVQAGGSLRLSCAASGRTFHRYAMGWYRPAPGKERELVAAISRGGITYYADSVKGRFTISRDNAKNTVYLQMNSLKPEDTAVYFCAALYRYYHESSPFDYWGQGTQVTVSS | high polyreactivity
QVQLVESGGGLVQAGGSLRLSCAASGSIFNINAMGWYRQAPGKERELVAAISKRGGSTYYADSVKGRFTISRDNAKNTVYLQLNSLKPEDTAVYYCAADLTGVDYDYWGQGTQVTVSS | high polyreactivity
HVQLVESGGGLVQAGGSLRLSCAASGSIFYYNVMGWYRQAPGKERELVAAIDIDGSTYYADSVKGRFTISRDNAKNTVYLQMNSMKPEDTAVYYCNAQAPYWFSFYYDHKYDYWGQGTQVTVSS | low polyreactivity
QVQLVESGGGLVQAGGSLRLSCAASGRIIGHNAMGWYRQAPGKERELVAAISSRGGSTFYADSVKGRFTISRDNAKNTVYLQKNSLKPEDTAVYYCNALGVGHSGFTKFSRYYYWGQGTQVTVSS | high polyreactivity
QVQLVESGGGLVQAGGSLRLSCAASGRTFGSYAMGWYRQAPGKERELVAAITTDASTNYADSVKGRFTISRDNAKNTVYLQMNSLKPEDTAVYYCAKRKRTNYGFWGQGTQVTVSS | low polyreactivity
QVQLVESGGGLVQAGGSLRLSCAASGSTFWLYAMGWYRQAPGKERELVASISSRGGSTYYADSVKGRFTISRDNAKNTVYLQMNSLKPEDTAVYYCAAKDIRYDDDYWGQGTQVTVSS | low polyreactivity
QVQLVESGGGLVQAGGSLRLSCDASGFTFVDYTMGWYRQAPGKERELVAAISRRGGSTYYADSVKGRFTISRANSKNTVYLQLNSLQQADTAVYYCNAYRRNYYYYQRHGYWGQCTQVTVSS | high polyreactivity
QVQLVESGGGLVQAGGSLRLSCAASGSIFSDYALGWYRQAPGKERELVAAITQSGGSTYADSVKGRFTISRDNAKNTVYLQMNSLIPEDTAVYYCAADEVPGFGYPPYPWFDYWGQGTQVTVSS | low polyreactivity
QVQLVESGAGIVQAGGSLRLSCAASGSTFYSYTMGWYRQAPGKERELVAAITSTGGRTYYADSVKGRFTISRDNAKITVYLQMNSLKPEDTAVYYCRRPYLYGMYYWGQGTQVTVSS | high polyreactivity
QVQLVESGGGLVQAGGSLRLSCAASGSIFDSYVMGWYRQAPGKERELVAAITYSGGSTYADSVMGRFTISRDNAKNTVYLQMNSVKPEDTAVYYCAAASYFYLYLLEDYWGQGTQVTVSS | low polyreactivity
QVQLVESVGGLDQAGGSLRLSCAASGFTFQYYAMGWYRQAPGKERELVAAITSNGGGTYYADSVKGRFTISRDNAKNTVYLQMNSLKPEDTAVYYCAADRWYSMDYWGQGTQVTVSS | high polyreactivity
QVQLVESAAGLVKAGASLRLSCAPSGSTFYLNAMGGSRQEPGQESEFVAAIRGGGTSTRYADSVKGRFTISRDNAKNSVYLQMNSLKPEDSAVYYCAAGPGGHRYKVGYWGLGTQVTVSS | high polyreactivity
QVQLVESGGGLVQAGGSLRLTCAASGSTLRYYAMGWYRQAPGKERELVAAISTGGSTYYADSVKGRFTISRDNAKITVYLQINSLKPEDTAVYYCAAEKKTKTYRYDYWGQGTQVTVSS | low polyreactivity
QVQLVESGGGLVQAGASLRLSCAASGSIFSGYTMGWYRQAPGKERELVAGISYRGGSTYYADSVKGRFTISRDNAKNTVYLQMNSLKPEDTAVYYCAALYYRRGSLNYEYWGQGTQVTVSS | high polyreactivity
QVQLVESGGGLVQAGGSLRLSCAASGIIFAWYVKGWYRQAPGKERELVAAITQSGGSTFYADSVKWRFTISRDNAKNTVYLQMNSLKPEDTAVYYCNREYWGRGYYRVRGEYDYWGQGTQVTVSS | low polyreactivity
QDQHVESGGGLVQAGGSLRLSCAASGIIFYRYAMGWYRQAPGKERELVAAIRRSGGSTFYADSVKGRFTISRDNAKNTVYLQMNCLKPVDTAVYYCAAVYTGDPYGYWGQGTQVTVSS | high polyreactivity
QVQLVESAGGLVQAGGSLRLSCAASGSIFERNVIGWYRRAPGKERELVPRISTSGGSTTYYADSVKGRFTISRDTAKNTVYLQMNSLKPEDTAVYYCAAGRGYWWWYGYDYWGQGTQVTVSS | low polyreactivity
QVQLVESGGGLVQAGGSLRLSCAASGSTFEDYAMGGYRQAPGKERELVAAISHIGGSTYYADSVKGRFTISRDNAKNTVYLQMNSLKPEDTAVYYCAKGGFSSKFDFWGQGTQVTVSS | low polyreactivity
QVQLVESGGGLDQAGGSLRLSCAASGRIFGRNAMGWYRQAPGKERELVAAITWSGGSTNYADSVKGRFTISRDNAKNTVYLEMNSLKPEDTAFYYCAKRYTPRPYKGICYYYWGQGTQVTVSS | high polyreactivity
QVQLVESGGGLVQAGGSLRLSCAASGFTFKFYAMGWYRQAPGKEREFVAAISHSGGRTYYADSVKGRFTISSDNAKNTVYLQLNILKPEDTAFYYCAAAEGGGLVTYDYWGQGTQVTVSS | low polyreactivity
QVQLVESGGGLVQAGGSLRLSCAASGRIFPHYAIGWYRQAPGKERELVAAISTSGGSTYYADSVKGRFTISRDIAKNTVYLQLNCLKPEDTEVYYCAARGYQYGFYYLVIYDYWGQGTQVTVSS | low polyreactivity
QVQLVESGGRLVQAGGSLRLSCAASGLIFAWYAMGWYRQAPGKQRELVATISWNGDRTYYADSVKVRFTISRDNAKNTVYLQMNSVKPVDSAVYYCAARFGSGFNYWGQGNQVTVSS | high polyreactivity

Sequence | polyreactivity (PSR sort gate)
QVQLVESGGGLVQAGCSLRLSCAASGYTSRRNVMGWYRQAPGNERELVAAINSAGSTTYADSVKGRFTISRVNAKNTVYLQMNSLKPEDTAVYYCAASVYTYNYDLHKSYYLGQGTQVTVSS | high polyreactivity
QVQLVESGGGLLQAGGSLRLSSAASGVYAMGWYRQAPGKERELVAAISRRGGSTYYADSVKGRFTISRDNAKNTVYLQMKSLNPADTAVYYCAADYTSRTRGNRDRLDYWGQGTQVTVSS | high polyreactivity
QVQLVESGGGLVQAGGSRRLSCAASGNTIYFYVMGWYRQAPGKERELVAAISSSGGSTYYADSVKGRFTISRDNAKNTVYLQMNSLKPEDTSVYYCAAEMYLSRLRYWYDYWGQGTQVTVSS | high polyreactivity
QVQLVESGGGLVQAGGSLRLSCAASGSIFSVYAMGWYRQAPGKERELVATISGSAGRTYYADSVKGRFTISRDNAKNTVYLQMNSLKPEDTAVYYCAARWYKEYYWGQRTQVTVSS | high polyreactivity
QVQLVESGGGLVQAGGSLRLSCAASGSTFVYAMVWYRPAPGKERELVAAITTGDSTYYADSVKGRFTISRDNAKNTVYLQMNSLKPEDTAVYYCAAQWYTRDGEYGYWGQGTQVTVSS | low polyreactivity
QVQLVESGGGLVQAGGSLRLSCAASGRIFGYYVMGWYRQAPGTERELVAAITGGGGSTYYADSVKGRFTISRDNAKNTVYLQMNSLKPEDNAVYYCAADLEDTTYEYDYWGQGTQVTVSS | high polyreactivity
QVQLVESGGGLVQAGGSLRLSCAASGSIFRSYAMGWYRQAPGKERELVARITYRGGGTYYADSVKGRVTISRDNAKNTVYLQMKSLKPEVTAVYYCAASGAFVRTRVTTADYDYWGQGTQVTVSS | high polyreactivity
QVQLVESGGGLVQAGGSLRLSCAASGRTFRSYAMGWYRQAPGKERELVAAISWTGGSTYYADSVKGRFTISRDNAKNTVYLQMNSLKPEDTAVYYCAVRYRGYGYDWGQGTQVTVSS | high polyreactivity
QVQLVESGGGLVQAGGSLRLSCAASGRILRPNAMGWYRQAPGKEREMVAAISVSGGRTYYADSVKGRFTISRDNAKNTVYLQMNSLKPEDTAVYYCAAKYKRGYDYWGQGTQVTVSS | high polyreactivity
QVQLVESGGGLFQAGGSLRISCAASGRTFSYYAMGWYRQAPVKERELVAAISWSGVITYYADSVKGRFTISRDNAKNTVYLQMNSMKPEDTAVYYCASRPYWSEFDYDYWGQGTQVTLSS | low polyreactivity
QVQLVESGGGLVQAGGSLRLSCAASGYIFKFYTMGWYRQAPGKERELVAAISRSGGSTYYADSVKGRFTISRDNAKNTVYLQLNSLKPEDTAVYYCARPRTRQGDYWGQGSQVTVSS | high polyreactivity
QGQLVESGGGLVQAGGSLRLSCAASVRTFYKYAMGWYRQAPGKERELVATITSGGSTNYADSVKGRFTISRDNAKNTVYLQMNSLKPEDTAVYYCAARGHIYKIRDPYWTHDYWGQGTQVTVSS | low polyreactivity
QVQLVESGGGLVQAGGSLRLSCAASGRTFSNNAMGWYRQAPGKERELVADITYSSDSTYYADSVKGRFTISRDNAKNTVYLQMNCLKPEDTAVYYCAADVVVGGSGSEYYYWGQGTQVTVSS | low polyreactivity
QVQLVESGGGLDQAGGSLRLSCAASGSTLGYNVMGWYRQAPGKERELVAAISGDGSTNYADSVKGRFTISRDNAKNTVYLQMNSLKPEDTAVYYCAARPGWFAGYEYWGQGTQVTVSS | low polyreactivity
QVQLVESGGGLVQAGGSLRLSCADSGSTFHPYAMGWYRKAPGKERELVAAISWTGGRTYYADSVKGRFTISRDNSKNTVYLQMNSLKPEDTAVYYCAARTYGKVGYWGQGTQVTVSS | high polyreactivity
QVQLVESGGGLVQAGGSLRLSCAASGYIFGQNAMGWYRPAPRKERELVASISDGGSTYYADSVKGRFTISRDNAKNTVYLQMNSLKPEDTAVYYCAAGQYWGEKALGAWLFDYWGQGTQLTVSS | low polyreactivity
QVQLVDSGGGLVQAGGSLRLSCAASGIIFAYNAMGWYRQAPGKERELVAAITSGTSTHYADSVKGRFTISRDNAKNSVYLHINSLNPEDTAVYYCNADYFFEFDYWGQGTQVTVSS | low polyreactivity
QVQLVESGGGLVQAGGSLRLSCAASGRIIIYKAMGWYRQAPGKERQLVAAINRSGVSTHYADSVKGRFTISRDNAKNTVYLQMNSLKPEDTAVYYCARTVYGARSYDYWGQGTQVTVSS | low polyreactivity
QVQLVESGGGLVQAGGSLRLICAASGSTFKWYAMGWYRQAPGKERELVAAISSSGGTTYYADSVKGRFTISRDNAKNTVYLQMNSLKPEDTAVYYCAKPYLYSGYGYWGQGTQVTVSS | high polyreactivity
QVQLVESGGGLVQAGGSLRLSCAASGSTFQLYAMGWYRQAPGKERELVAGISRDGSTYYADSVKGRFTISRDNAKNTVYLQMNSLKPEDTAVYYCAAKYYGNKRDLYYWGQGTQVTVSS | low polyreactivity
QGQLVESGGGLVQAGASLRLSCAASGFIFAHYTMGWYRQAPGKARELVAAITRAGGSTFYADSVKGRFTISRDNAKNTVYLQRNSLKPEDTAVYYCNRGNRWNFDSWGQGTQVTVSS | high polyreactivity
